Experimental data from patent US20180195054A1 (Stanford University, published 2018).

How the values were obtained:
[1] = biological target: biotinylated CD47 IgSF domain (human CD47 residues 19-135 / residues 1-117, C15G) (human) (UniProt Q08722); assay: SPR (Biacore T100, 25 C), biotinylated CD47 captured on SA chip, SIRPα variant in solution, 1:1 Langmuir model
[2] = biological target: human CD47 on the surface of cancer cells (Raji, Jurkat, DLD-1) (human) (UniProt Q08722); assay: flow cytometry on Jurkat cells, competition with Alexa Fluor 647 wild-type SIRPα tetramer (50 nM per paragraph 133)
[3] = biological target: human CD47 on the surface of cancer cells (Raji, Jurkat, DLD-1) (human) (UniProt Q08722); assay: flow cytometry on Raji cells, competition with 100 nM Alexa Fluor 647 WT SIRPα tetramer
[4] = biological target: T1, mouse CD47 on mouse cells (CT26 colon cancer cells; mouse blood cells) (mouse, UniProt Q61735 19-303); assay: flow cytometry on mouse CT26 colon cancer cells
T1 construct: whole, on cells
T1 sequence (looked up): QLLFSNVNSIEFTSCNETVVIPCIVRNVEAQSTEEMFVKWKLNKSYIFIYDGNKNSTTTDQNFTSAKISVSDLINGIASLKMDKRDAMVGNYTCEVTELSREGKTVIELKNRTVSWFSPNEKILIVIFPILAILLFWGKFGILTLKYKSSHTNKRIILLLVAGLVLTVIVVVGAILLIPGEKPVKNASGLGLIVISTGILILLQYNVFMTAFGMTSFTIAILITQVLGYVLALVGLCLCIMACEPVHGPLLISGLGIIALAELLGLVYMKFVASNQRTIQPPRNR

[5] = biological target: T2, human CD47 on the surface of cancer cells (Raji, Jurkat, DLD-1) (human, UniProt Q08722 19-323); assay: flow cytometry on Jurkat cells, biotinylated SIRPα variant detected with Alexa Fluor 647 streptavidin
T2 construct: whole, on cells; also called cell-surface CD47; CD47 on cancer cells
Description: (§1) GFP+ Jurkat cells were washed in PBS then incubated with titrating concentrations of biotinylated SIRPα variants for 30 minutes on ice. Wild-type SIRPα tetramer was pre-formed by incubating a 4:1 molar ratio of biotinylated wild-type SIRPα with streptavidin for 15 minutes on ice. […] Cells were washed twice then analyzed for SIRPα variant binding by flow cytometry using an Accuri C6 flow cytometer. To assess blocking of wild-type SIRPα to cD47, 50 nM wild-type SIRPα tetramer was incubated with titrating concentrations of CD47 blocking agents for 30 minutes on ice. Anti-CD47 clone B6H12 (eBioscience) was used as a positive control for blocking. Data were analyzed using GraphPad Prism 5. Maximal SIRPα variant binding represents the percentage of the maximal mean fluorescence intensity measured for each variant.

[6] = biological target: T2, human CD47 on the surface of cancer …; assay: flow cytometry on DLD-1 cells, detection with goat anti-human IgG
Description: Varying concentrations of biotinylated SIRPα monomers, SIRPα-hlgG4 fusion proteins, or anti-CD47 antibodies were incubated with cancer cells as indicated. […] Binding of SIRPα-hlgG4 fusion proteins or anti-CD47 antibodies was detected with goat anti-human IgG antibody (Invitrogen) and was analyzed on an LSRFortessa with high-throughput sampler (BD Biosciences). Data represent the mean fluorescence intensity normalized to maximal binding for each class of reagents, and points were fit to sigmoidal dose-response curves using Prism 5 (Graphpad).

[7] = biological target: T3, mouse CD47 displayed on the surface of yeast (mouse, UniProt Q61735 19-133, limits assumed); assay: flow cytometry on yeast displaying mouse CD47
T3 sequence (looked up): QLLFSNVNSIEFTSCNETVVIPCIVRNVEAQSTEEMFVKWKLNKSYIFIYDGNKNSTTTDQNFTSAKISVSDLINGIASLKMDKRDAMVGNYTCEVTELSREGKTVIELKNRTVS

[8] = biological target: T2, human CD47 on the surface of cancer …; assay: flow cytometry on Raji cells, competition with 100 nM Alexa Fluor 647 WT SIRPα tetramer
[9] = biological target: T4, biotinylated CD47 IgSF domain (human CD47 residues 19-135 / residues 1-117, C15G) (human, UniProt Q08722 19-135, biotinylated with BirA ligase at the C-terminal biotin acceptor peptide tag); assay: SPR (Biacore T100, 25 C), biotinylated CD47 captured on SA chip, SIRPα variant in solution, 1:1 Langmuir model
T4 construct: range 19-135; Captured on a Biacore SA chip for SPR; C15G is counted on the mature domain (1-117), not on the precursor; also called immobilized CD47
Description: SPR experiments were conducted on a Biacore T100 instrument at 25° C. Experiments used a Biacore SA sensor chip (GE Healthcare) to capture biotinylated CD47 at a surface density of approximately 150 RU. An unrelated biotinylated protein was immobilized as a reference surface for the SA sensor chip with matching RU to the experimental surface. Serial dilutions of unbiotinylated SIRPα variants in the running buffer [1×HBS-P (GE Healthcare)] were flowed over the chip at a rate of 50 μL/min. CD47 was regenerated using three 30 second injections of 2M MgCl₂. Data was analyzed using the Biacore T100 evaluation software version 2.0 with a 1:1 Langmuir binding model.
Experiments were conducted with a Biacore T100 at 25° C. Protein concentrations were quantified by 280 nm absorbance with a Nanodrop2000 spectrometer (Thermo Scientific). A Biacore SA sensor chip (GE Healthcare) was used to capture biotinylated CD47 (Rₘₐₓ ˜150 RU). An unrelated biotinylated protein was immobilized with an RU value matching that of the […] to control for nonspecific binding. Measurements were made with serial dilutions of the SIRPα variants in HBS-P+ buffer (GE Healthcare). The CD47 surface was regenerated by three 60 second injections of 2 M MgCl₂. All data were analyzed with the Biacore T100 evaluation software version 2.0 with a 1:1 Langmuir binding model.

[10] = biological target: T2, human CD47 on the surface of cancer …; assay: flow cytometry on Jurkat cells, competition with Alexa Fluor 647 wild-type SIRPα tetramer (50 nM per paragraph 133)
Description: as §1

WT allele 2 (from UniProt P78324) (receptor)
Kd [1]: 452 nM

Anti-CD47 (B6H12) (antibody)
IC50 (read off the curve) [2]: 80 nM

Fab fragments of anti-CD47 antibody clone B6H12
IC50 (read off the curve) [3]: 100 nM

B1: biotinylated FD6 monomer (designed binder)
chain: EEEVQIIQPDKSVSVAAGESAILHCTITSLFPVGPIQWFRGAGPARVLIYNQRQGPFPRVTTISETTRRENMDFSISISNITPADAGTYYCIKFRKGSPDTEFKSGAGTELSVRAKPSGLNDIFEAQKIEWHEHHHHHHHH
modifications: biotinylated at the C-terminal biotin acceptor peptide tag
EC50 (read off the curve) [4]: ~300 nM

B2: biotinylated high-affinity SIRPα variant FA4 monomer (designed binder)
chain: EEELQIIQPDKSVSVAAGESAILHCTITSLTPVGPIQWFRGAGPARVLIYNQRQGPFPRVTTVSEGTRRENMDFSISISNITPADAGTYYCIKFRKGSPDTEVKSGAGTELSVRAKPSGLNDIFEAQKIEWHEHHHHHHHH
modifications: biotinylated at the C-terminal biotin acceptor peptide tag
binding result [5]: binds

B3: CV1-hIgG4 (CV1 d1 domain fused to hinge, CH2 and CH3 of human IgG4 S228P) (Fc fusion)
chain: EEELQIIQPDKSVLVAAGETATLRCTITSLFPVGPIQWFRGAGPGRVLIYNQRQGPFPRVTTVSDTTKRNNMDFSIRIGNITPADAGTYYCIKFRKGSPDDVEFKSGAGTELSVRAKPSAAAPPCPPCPAPEFLGGPSVFLFPPKPKDTLMISRTPEVTCVVVDVSQEDPEVQFNWYVDGVEVHNAKTKPREEQFNSTYRVVSVLTVLHQDWLNGKEYKCKVSNKGLPSSIEKTISKAKGQPREPQVYTLPPSQEEMTKNQVSLTCLVKGFYPSDIAVEWESNGQPENNYKTTPPVLDSDGSFFLYSRLTVDKSRWQEGNVFSCSVMHEALHNHYTQKSLSLSPGK
notes: also called CV1-hlgG4
EC50 (read off the curve) [6]: ~4 nM

B4: high-affinity SIRPα variant CV1 monomer (consensus variant 1, d1 domain) (designed binder)
chain: EEELQIIQPDKSVLVAAGETATLRCTITSLFPVGPIQWFRGAGPGRVLIYNQRQGPFPRVTTVSDTTKRNNMDFSIRIGNITPADAGTYYCIKFRKGSPDDVEFKSGAGTELSVRAKPSHHHHHHHH
notes: Nine consensus substitutions grafted onto wild-type SIRPα allele 2
EC50 (read off the curve) [7]: ~20 nM | IC50 (read off the curve) [8]: ~0.8 nM | Kd [9]: 0.0111 nM

B5: FA4 (designed binder)
SIRPα d1 domain variant: EEELQIIQPDKSVSVAAGESAILHCTITSLTPVGPIQWFRGAGPARVLIYNQRQGPFPRVTTVSEGTRRENMDFSISISNITPADAGTYYCIKFRKGSPDTEVKSGAGTELSVRAKPS
notes: also called FA4 mutant d1 domain; FA4 monomer (unbiotinylated, SPR analyte)
Kd [9]: 0.034 nM

B6: FB3 (designed binder)
SIRPα d1 domain variant: EEELQIIQPDKSVSVAAGESAILHCTITSLFPVGPIQWFRGAGPARLLIYNQRQGPFPRVTTVSETTKRENMDFSISISNITPADAGTYYCVKFRKGSPDTEFKSGAGTELSVRAKPS
notes: also called FB3 mutant d1 domain
Kd [9]: 0.0699 nM

B7: 1D4 (designed binder)
SIRPα d1 domain variant: EEELQVIQPDKSVSVAAGESAILHCTITSLIPVGPIQWFRGAGPARELIYNQREGHFPRVTTVSETTRRENMDFSISISNITPADAGTYYCVKFRKGSPDTEVKSGAGTELSVRAKPS
notes: First generation variant, unbiotinylated monomer in SPR; also called 1D4 mutant d1 domain
Kd [9]: 11.6 nM

B8: 2F5 (designed binder)
SIRPα d1 domain variant: EEEVQLIQPDKSVSVAAGESAILHCTVTSLFPVGPIQWFRGAGPARVLIYNQREGPFPRVTTVSEGTKRENMDFSISISNITPADAGTYYCIKFRKGSPDTEVKSGAGTELSVRAKPS
notes: also called 2F5 mutant d1 domain
Kd [9]: 0.276 nM

B9: 2D3 (designed binder)
SIRPα d1 domain variant: EEEVQIIQPDKSVSVAAGESVILHCTITSLTPVGPIQWFRGAGPARLLIYNQREGPFPRVTTVSETTRRENMDFSISISNITPADAGTYYCVKLRKGSPDTEFKSGAGTELSVRAKPS
notes: also called 2D3 mutant d1 domain
Kd [9]: 0.847 nM

B10: 2A10 (designed binder)
SIRPα d1 domain variant: EEELQIIQPDKSVSVAAGESAILHCTITSLSPVGPIQWFRGAGPARVLIYNQRQGPFPRVTTVSEGTKRENMDFSISISNITPADAGTYYCIKLRKGSPDTEFKSGAGTELSVRAKPS
notes: also called 2A10 mutant d1 domain
Kd [9]: 0.5 nM

B11: 2B5 (designed binder)
SIRPα d1 domain variant: EEEIQVIQPDKSVSVAAGESVIIHCTVTSLFPVGPIQWFRGAGPARVLIYNQRQGRFPRVTTVSEGTKRENMDFSISISNITPADAGTYYCVKVRKGSPDTEVKSGAGTELSVRAKPS
notes: also called 2B5 mutant d1 domain
Kd [9]: 0.423 nM

B12: 2A2 (designed binder)
SIRPα d1 domain variant: EEEVQIIQPDKSVSVAAGESIILHCTVTSLFPVGPIQWFRGAGPARVLIYNQREGRFPRVTTVSEGTRRENMDFSISISNITPADAGTYYCIKLRKGSPDTEFKSGAGTELSVRAKPS
notes: also called 2A2 mutant d1 domain
Kd [9]: 0.402 nM

B13: FD6-hIgG4 (FD6 d1 domain fused to hinge, CH2 and CH3 of human IgG4) (Fc fusion)
chain: EEEVQIIQPDKSVSVAAGESAILHCTITSLFPVGPIQWFRGAGPARVLIYNQRQGPFPRVTTISETTRRENMDFSISISNITPADAGTYYCIKFRKGSPDTEFKSGAGTELSVRAKPSAAAPPCPPCPAPEFLGGPSVFLFPPKPKDTLMISRTPEVTCVVVDVSQEDPEVQFNWYVDGVEVHNAKTKPREEQFNSTYRVVSVLTVLHQDWLNGKEYKCKVSNKGLPSSIEKTISKAKGQPREPQVYTLPPSQEEMTKNQVSLTCLVKGFYPSDIAVEWESNGQPENNYKTTPPVLDSDGSFFLYSRLTVDKSRWQEGNVFSCSVMHEALHNHYTQKSLSLSPGK
notes: also called FD6-hlgG4; FD-hlgG4
EC50 (read off the curve) [6]: ~5 nM | IC50 (read off the curve) [10]: ~2 nM

B14: first generation SIRPα mutant 1A5 monomer (designed binder)
chain: EEEVQVIQPDKSVSVAAGESAILHCTLTSLIPVGPIQWFRGAGPARVLIYNQRQGHFPRVTTVSEGTRRENMDFSISISNITPADAGTYYCIKFRKGSPDTEFKSGAGTELSVRAKPSHHHHHHHH
Kd [9]: 3.6 nM | IC50 (read off the curve) [10]: ~80 nM

B15: high-affinity SIRPα variant FD6 monomer (d1 domain) (designed binder)
chain: EEEVQIIQPDKSVSVAAGESAILHCTITSLFPVGPIQWFRGAGPARVLIYNQRQGPFPRVTTISETTRRENMDFSISISNITPADAGTYYCIKFRKGSPDTEFKSGAGTELSVRAKPSHHHHHHHH
notes: Second generation variant of human SIRPα allele 1 d1
IC50 (read off the curve) [8]: ~2 nM | Kd [9]: 0.0413 nM | IC50 (read off the curve) [10]: ~3 nM
